Tests used:
[1] = target: T1, Mouse cKIT ECD-H6 (mouse, UniProt P05532 25-527); experiment: BIAcore, SCF on CM5 chip
T1 construct: extracellular domain; also called mouse c-kit (His tagged)
T1 sequence (looked up): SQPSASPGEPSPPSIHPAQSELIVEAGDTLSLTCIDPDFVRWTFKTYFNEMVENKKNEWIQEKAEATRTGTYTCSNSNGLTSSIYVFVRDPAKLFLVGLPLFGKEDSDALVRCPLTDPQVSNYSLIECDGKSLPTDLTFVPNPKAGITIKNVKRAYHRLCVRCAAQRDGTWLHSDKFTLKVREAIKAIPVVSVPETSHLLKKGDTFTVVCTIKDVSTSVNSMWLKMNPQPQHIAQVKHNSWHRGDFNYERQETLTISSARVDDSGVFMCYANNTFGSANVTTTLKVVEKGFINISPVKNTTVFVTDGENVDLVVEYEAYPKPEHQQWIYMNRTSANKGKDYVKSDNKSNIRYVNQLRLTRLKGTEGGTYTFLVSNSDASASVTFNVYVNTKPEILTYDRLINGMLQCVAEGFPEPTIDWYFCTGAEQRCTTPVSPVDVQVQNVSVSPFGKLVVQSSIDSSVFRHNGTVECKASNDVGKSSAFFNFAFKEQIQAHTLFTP
Procedure: (§1) Human and murine SCF were covalently attached to a CM5 BIAcore chip (GE Healthcare) in the presence of acetate pH 4 for both antigens. cKIT from various species were diluted to 1 μM in HBS-EP buffer (GE Healthcare) and run on the BIAcore in a 2-fold serial dilution to 1 nM.
(§2) Anti-human and anti-mouse SCF monoclonal antibodies (mAb) were used as controls (R&D systems).

[2] = target: T2, Human cKIT ECD-Fc (human, UniProt P10721 26-524); experiment: BIAcore, SCF on CM5 chip
T2 construct: extracellular domain; also called hcKIT; human c-KIT ECD-hIgG1 Fc fusion; not shown: human IgG1 Fc (pDOM38)
Procedure: as §1, §2

T2 sequence (P10721 26-524): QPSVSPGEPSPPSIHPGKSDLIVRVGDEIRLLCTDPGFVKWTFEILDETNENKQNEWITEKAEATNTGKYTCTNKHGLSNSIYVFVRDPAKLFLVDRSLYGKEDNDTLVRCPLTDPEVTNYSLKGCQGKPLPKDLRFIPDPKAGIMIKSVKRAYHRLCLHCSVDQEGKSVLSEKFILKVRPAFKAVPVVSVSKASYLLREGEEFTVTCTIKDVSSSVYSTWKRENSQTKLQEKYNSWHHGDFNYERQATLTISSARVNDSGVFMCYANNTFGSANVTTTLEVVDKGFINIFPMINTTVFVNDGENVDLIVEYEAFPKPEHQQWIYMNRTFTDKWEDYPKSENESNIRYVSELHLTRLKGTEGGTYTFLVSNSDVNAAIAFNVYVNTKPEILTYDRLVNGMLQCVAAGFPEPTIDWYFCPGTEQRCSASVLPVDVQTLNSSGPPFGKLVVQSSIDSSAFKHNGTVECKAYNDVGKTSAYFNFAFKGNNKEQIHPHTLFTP

B1: mouse Stem Cell Factor, 6xHIS tag (ligand, UniProt P20826 26-190, looked up)
chain: KEICGNPVTDNVKDITKLVANLPNDYMITLNYVAGMDVLPSHCWLRDMVIQLSLSLTTLLDKFSNISEGLSNYSIIDKLGKIVDDLVLCMEENAPKNIKESPKRPETRSFTPEEFFSIFNRSIDAFKDFMVASDTSDCVLSSTLGPEKDSRVSVTKPFMLPPVAA
notes: also called mSCF; murine SCF
[1]
  binding result: no binding (tested: 1 µM)
[2]
  Kd: 17.7 nM
